No end group written: not given here.
T1: ATAD2 CO C1057A/C1079A/C1101A bromodomain (triple cysteine mutant) (human, UniProt Q6PL18 981-1108, C1057A | C1079A | C1101A)
T1 sequence: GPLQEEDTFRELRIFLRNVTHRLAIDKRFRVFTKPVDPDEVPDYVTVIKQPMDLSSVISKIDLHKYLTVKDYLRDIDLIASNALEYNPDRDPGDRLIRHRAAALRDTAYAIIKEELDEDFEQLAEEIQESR


Columns and labels:
[1] = target: histone H4K5ac (Homo sapiens) (UniProt P62805); experiment: ITC; conditions: cited from earlier work
[2] = target: T1, ATAD2 CO C1057A/C1079A/C1101A …; experiment: ITC

Row | Molecule | Kd [1] [µM] | Kd [2] [µM] | dH [2] [cal/mol] | stoichiometry N [2]
1 | ATAD2 bromodomain (from UniProt Q6PL18) | 22 | – | – | –
2 | SGRGK(Ac)GGKGL [histone H4K5ac peptide (residues 1-10)] | – | 113 | -4200 | 0.84

From paper PMC6457126 (Proteins, 2018)
